Ends that are not written are not given here. * marks the point of attachment. Biotin = O=C1N[C@H]2[C@H](CS[C@H]2CCCCC(=O)*)N1
How the values were obtained:
Experiment in all cases: peptide or protein array; E. coli proteome chip: purified His-tagged proteins printed in duplicate on Fullmoon slides, blocked with 1% BSA; 10 nM N-terminal biotinylated LfcinB with 1% BSA, room temperature, 1 h; detected with DyLight 649-labeled streptavidin, ratio to DyLight 549-labeled anti-His antibody; ProCAT normalisation, local cut-off; triplicate chips
Details in all cases: both partners purified
[1] = target: T1, GldA (E. coli K-12, UniProt P0A9S5 1-367)
T1 construct: GldA, E. coli K-12
T1 sequence (looked up): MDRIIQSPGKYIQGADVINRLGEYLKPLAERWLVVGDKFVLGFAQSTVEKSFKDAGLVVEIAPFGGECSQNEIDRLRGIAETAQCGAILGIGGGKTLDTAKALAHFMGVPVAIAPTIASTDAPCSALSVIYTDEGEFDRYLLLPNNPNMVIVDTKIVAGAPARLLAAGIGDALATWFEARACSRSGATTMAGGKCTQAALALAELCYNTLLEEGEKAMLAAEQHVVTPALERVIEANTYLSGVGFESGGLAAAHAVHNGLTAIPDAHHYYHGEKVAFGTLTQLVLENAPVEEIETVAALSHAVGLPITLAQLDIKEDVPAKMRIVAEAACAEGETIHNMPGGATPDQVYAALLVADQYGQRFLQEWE

[2] = target: T2, CreB (E. coli K-12, UniProt P08368 1-229)
T2 construct: CreB, E. coli K-12
T2 sequence (looked up): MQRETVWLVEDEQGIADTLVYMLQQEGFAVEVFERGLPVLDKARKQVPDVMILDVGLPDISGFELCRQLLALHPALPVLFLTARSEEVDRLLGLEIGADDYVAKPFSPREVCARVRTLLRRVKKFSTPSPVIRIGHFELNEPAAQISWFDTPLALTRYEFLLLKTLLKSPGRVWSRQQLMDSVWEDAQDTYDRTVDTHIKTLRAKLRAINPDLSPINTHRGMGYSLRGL

[3] = target: T3, YegJ (E. coli K-12, UniProt P76394 1-153)
T3 construct: YegJ, E. coli K-12
T3 sequence (looked up): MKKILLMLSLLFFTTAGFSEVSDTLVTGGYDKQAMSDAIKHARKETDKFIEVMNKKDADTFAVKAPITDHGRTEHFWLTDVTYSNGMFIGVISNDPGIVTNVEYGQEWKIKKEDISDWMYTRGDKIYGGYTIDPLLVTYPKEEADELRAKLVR

[4] = target: T4, RecC (E. coli K-12, UniProt P07648 1-1122)
T4 construct: RecC, E. coli K-12
T4 sequence (looked up): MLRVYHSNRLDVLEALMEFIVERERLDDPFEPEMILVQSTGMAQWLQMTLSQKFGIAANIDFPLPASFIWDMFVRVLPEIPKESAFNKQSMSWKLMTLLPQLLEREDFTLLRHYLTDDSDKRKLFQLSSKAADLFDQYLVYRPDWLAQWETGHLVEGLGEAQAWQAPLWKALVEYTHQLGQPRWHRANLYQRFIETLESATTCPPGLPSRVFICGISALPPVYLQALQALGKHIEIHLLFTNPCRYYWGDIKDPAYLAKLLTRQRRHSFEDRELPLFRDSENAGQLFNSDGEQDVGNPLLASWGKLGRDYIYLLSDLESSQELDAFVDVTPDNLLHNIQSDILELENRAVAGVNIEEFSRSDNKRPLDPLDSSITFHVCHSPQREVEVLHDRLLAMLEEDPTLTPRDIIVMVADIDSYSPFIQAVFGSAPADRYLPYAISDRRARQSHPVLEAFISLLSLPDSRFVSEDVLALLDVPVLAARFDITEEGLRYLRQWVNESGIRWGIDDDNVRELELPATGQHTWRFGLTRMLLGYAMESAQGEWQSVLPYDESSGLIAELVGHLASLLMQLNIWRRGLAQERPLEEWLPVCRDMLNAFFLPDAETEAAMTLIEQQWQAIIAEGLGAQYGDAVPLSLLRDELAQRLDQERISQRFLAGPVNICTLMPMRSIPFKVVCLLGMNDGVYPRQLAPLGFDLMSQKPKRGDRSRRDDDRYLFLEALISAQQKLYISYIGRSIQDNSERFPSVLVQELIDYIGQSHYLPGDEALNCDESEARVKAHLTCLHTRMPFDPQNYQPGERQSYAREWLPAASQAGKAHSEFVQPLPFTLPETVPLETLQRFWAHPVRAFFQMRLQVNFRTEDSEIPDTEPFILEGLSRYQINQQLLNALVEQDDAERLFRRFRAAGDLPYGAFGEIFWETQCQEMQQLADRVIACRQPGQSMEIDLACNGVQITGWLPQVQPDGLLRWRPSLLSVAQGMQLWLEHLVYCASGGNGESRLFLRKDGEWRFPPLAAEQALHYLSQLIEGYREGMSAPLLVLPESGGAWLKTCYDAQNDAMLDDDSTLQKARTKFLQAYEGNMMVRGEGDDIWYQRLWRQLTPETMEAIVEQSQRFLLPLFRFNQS

Measured: binding result

B1: N-terminal biotinylated Lactoferricin B (peptide, UniProt P24627 36-60, looked up)
peptide: Biotin-FKCRRWQWRMKKLGAPSITCVRRAF
modifications: ends and bridges not checked
notes: lactoferricin B (LfcinB), cationic antimicrobial peptide of 25 amino acids; also called biotinylated LfcinB; biotin-labeled LfcinB; source: bought: Kelowna Inc
binds: [1] | [2] | [3] | [4]
